Stoichiometry N and binding signal (fold of WT affinity (>5-fold decreased)) data for 3 substances are collected here from PMC2895232.

Some results are limits rather than exact numbers.

Series [1] deals with ParBΔ121–183 of Pseudomonas aeruginosa (Pseudomonas aeruginosa). The experiment in a line: cross-linking; glutaraldehyde cross-linking in vitro of purified His6-tagged ParB proteins to determine the oligomeric state; WT ParB as the control.
Series [2] has as its system ParB1-229 (Pseudomonas aeruginosa PAO1161). The experiment in a line: EMSA. As to conditions: not given in the material.
Series [3] concerns the target wild-type ParB of Pseudomonas aeruginosa (Pseudomonas aeruginosa). The experiment in a line: cross-linking; glutaraldehyde cross-linking in vitro of purified His6-tagged ParB proteins to determine the oligomeric state; WT ParB as the control.

Regarding “ParBΔ121–183 of Pseudomonas aeruginosa (natural protein)”, in series [1], the stoichiometry N (usually a count of units in the complex or per binding partner) came out at 2. Regarding parS, the binding signal (fold of WT affinity (>5-fold decreased)) in series [2] was less than 0.2. As to “wild-type ParB of Pseudomonas aeruginosa (natural protein)”, the stoichiometry N in series [3] was 2.
